Reference: PMC12205872, “ESSENTIAL MEIOTIC ENDONUCLEASE 1 is required for chloroplast development and DNA repair in rice”

What was measured:
[1] = molecular target: T1, OsEME1 (MBP removed by TEVp) (Oryza sativa L. japonica cv. KY131, UniProt Q0J9J6 1-650); test: EMSA; 20 uM protein, 1 mM Mg2+, 5 mM ATP; EMSA/cleavage: 25 mM Tris-HCl pH 7.5, 1 mM MgCl2, 100 mg/mL BSA (so in the source), 1 mM DTT, 5 mM ATP, 2.5 uM Cy5 substrate, 20 uM protein, 30 C, 15% TBE-PAGE after; settings: protein: recombinant, tags: MBP cleaved by TEVp, splayed Y: X1 1-25 paired with X2 26-50, 25 nt unpaired arms
T1 sequence: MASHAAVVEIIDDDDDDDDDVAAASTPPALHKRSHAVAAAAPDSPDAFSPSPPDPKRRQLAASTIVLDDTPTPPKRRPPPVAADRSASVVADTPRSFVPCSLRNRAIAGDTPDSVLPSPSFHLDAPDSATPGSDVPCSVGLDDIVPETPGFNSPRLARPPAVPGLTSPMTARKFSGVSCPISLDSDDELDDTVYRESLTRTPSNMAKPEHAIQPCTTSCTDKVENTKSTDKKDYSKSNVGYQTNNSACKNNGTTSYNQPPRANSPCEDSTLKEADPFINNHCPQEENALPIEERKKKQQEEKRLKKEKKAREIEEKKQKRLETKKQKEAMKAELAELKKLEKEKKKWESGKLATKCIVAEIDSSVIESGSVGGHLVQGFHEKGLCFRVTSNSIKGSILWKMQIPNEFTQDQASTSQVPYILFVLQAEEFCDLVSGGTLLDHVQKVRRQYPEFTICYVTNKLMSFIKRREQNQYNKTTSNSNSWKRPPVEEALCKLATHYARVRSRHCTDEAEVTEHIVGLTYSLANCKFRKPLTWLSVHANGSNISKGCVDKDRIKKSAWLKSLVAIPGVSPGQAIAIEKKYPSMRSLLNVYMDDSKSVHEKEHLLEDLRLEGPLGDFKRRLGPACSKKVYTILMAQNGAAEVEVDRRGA

[2] = molecular target: T2, OsEME1-MBP (MBP fusion, used in MST) (Oryza sativa L. japonica cv. KY131, UniProt Q0J9J6 1-650); test: MST; 100 nM DNA, 30 C; substrate called Y-Flag in Methods; EMSA/cleavage: 25 mM Tris-HCl pH 7.5, 1 mM MgCl2, 100 mg/mL BSA (so in the source), 1 mM DTT, 5 mM ATP, 2.5 uM Cy5 substrate, 20 uM protein, 30 C, 15% TBE-PAGE after; settings: protein: recombinant; tags: MBP; splayed Y: X1 1-25 paired with X4 26-50; 25 nt unpaired 3' arm of X1 and 5' arm of X4
T2 sequence: T1 sequence

[3] = molecular target: T3, OsMUS81 (MBP removed by TEVp) (Oryza sativa L. japonica cv. KY131, UniProt Q8GT06 1-660); test: EMSA; 1 mM Mg2+, 5 mM ATP; not responsible for cleavage; EMSA/cleavage: 25 mM Tris-HCl pH 7.5, 1 mM MgCl2, 100 mg/mL BSA (so in the source), 1 mM DTT, 5 mM ATP, 2.5 uM Cy5 substrate, 20 uM protein, 30 C, 15% TBE-PAGE after; settings: protein: recombinant, tags: MBP cleaved by TEVp, label: Cy5 on X1 (3' end)
T3 sequence: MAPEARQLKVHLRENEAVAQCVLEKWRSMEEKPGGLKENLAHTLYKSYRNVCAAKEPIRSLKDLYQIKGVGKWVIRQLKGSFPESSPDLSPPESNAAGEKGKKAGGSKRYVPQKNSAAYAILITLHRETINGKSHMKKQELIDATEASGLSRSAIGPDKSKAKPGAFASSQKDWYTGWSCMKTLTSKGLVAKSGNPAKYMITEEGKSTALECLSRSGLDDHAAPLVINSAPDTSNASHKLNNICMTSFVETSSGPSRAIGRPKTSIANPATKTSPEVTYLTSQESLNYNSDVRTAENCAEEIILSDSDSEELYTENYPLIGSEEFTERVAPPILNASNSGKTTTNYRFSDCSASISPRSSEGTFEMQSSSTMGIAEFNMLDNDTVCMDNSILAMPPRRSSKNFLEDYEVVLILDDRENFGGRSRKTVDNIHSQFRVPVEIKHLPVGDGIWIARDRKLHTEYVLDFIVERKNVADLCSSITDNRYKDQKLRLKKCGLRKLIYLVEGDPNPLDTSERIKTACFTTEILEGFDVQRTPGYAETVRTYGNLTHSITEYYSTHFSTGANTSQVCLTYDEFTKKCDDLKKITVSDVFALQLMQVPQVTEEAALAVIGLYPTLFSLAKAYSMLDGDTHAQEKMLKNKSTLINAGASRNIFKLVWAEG

B1: OsGLK1-Y12 (mixed)
DNA 1: CGTCGATGACATAGACTTCGGGGACTTCTTCCTGAGGCTGGAGGACGGTG
DNA 2: GAAGTCGGTGAAGATCTCGGCCGGGGTCCCCGAAGTCTATGTCATCGACG
B1: binds ([1]; label: 5' Cy5 on GLK1 X1).

B2: Y12 (mixed)
DNA 1: GACGCTGCCGAATTCTGGCTTGCTAGGACATCTTTGCCCACGTTGACCCG
DNA 2: GCGATAGTCTCTAGACAGCATGTCCTAGCAAGCCAGAATTCGGCAGCGTC
Binder B2 has a Kd [2] of 16.3 ± 2.16 µM.

B3: pre-X12 (mixed)
DNA 1: B2 DNA 1
DNA 2: CGGGTCAACGTGGGCAAAGATGTCCTAGCAATGTAATCGTCTATGACGTC
DNA 3: B2 DNA 2
B3: binds ([3]; three-strand junction: X1 1-25 with X4 26-50, X1 26-50 with X2 1-25, X2 3' and X4 5' arms single-stranded).

B4: X12 (structured_DNA)
DNA 1: B2 DNA 1
DNA 2: B3 DNA 2
DNA 3: GACGTCATAGACGATTACATTGCTAGGACATGCTGTCTAGAGACTATCGC
DNA 4: B2 DNA 2
B4: binds ([3]; four-way Holliday junction with 12-bp mobile homologous core).

B5: OsGLK2-Y12 (mixed)
DNA 1: GAAGAAGAAGGACGACGAGGAAAGGTCGTCGTCGTTGCCGGAGGAGAAAG
DNA 2: CTCCGTCGTCACCGCGCTCAGGACCCCTTTCCTCGTCGTCCTTCTTCTTC
B5: binds ([1]; label: 5' Cy5 on GLK2 X1).
